{"source": "paper PMC7307139", "binders": {"B1": {"name": "vesicular stomatitis virus (VSV) phosphoprotein (P), wild type, P03520 1-265 (natural protein)", "chain": "MDNLTKVREYLKSYSRLDQAVGEIDEIEAQRAEKSNYELFQEDGVEEHTKPSYFQAADDSDTESEPEIEDNQGLYAQDPEAEQVEGFIQGPLDDYADEEVDVVFTSDWKPPELESDEHGKTLRLTSPEGLSGEQKSQWLSTIKAVVQSAKYWNLAECTFEASGEGVIMKERQITPDVYKVTPVMNTHPSQSEAVSDVWSLSKTSMTFQPKKASLQPLTISLDELFSSRGEFISVGGDGRMSHKEAILLGLRYKKLYNQARVKYSL"}}, "target": "T1, vesicular stomatitis virus (VSV) phosphoprotein (P), wild type (vesicular stomatitis virus (VSV)), P03520", "T1 chain": "B1 chain", "experiment": "SEC-MALS", "conditions": "remark: other sources report otherwise", "data": [{"binder": "B1", "values": [{"measurement": "stoichiometry N", "result": 2}]}]}
